In paper PMC5132341, “Malaria parasite CelTOS targets the inner leaflet of cell membranes for pore-dependent disruption” (eLife, 2016):

Assays:
[1] = molecular target: Plasmodium vivax cell-traversal protein for ookinetes and sporozoites (PvCelTOS), amino acids 36-196 (Plasmodium vivax); experiment: AUC; sedimentation equilibrium, 10°C, 150 mM NaCl, 10 mM HEPES pH 7.4, 12,000 and 15,000 rpm; PfCelTOS at 25, 36 and 46 µM, PvCelTOS at 29, 41 and 53 µM; single component model
[2] = molecular target: the molecule itself; experiment: as above

| Molecule | stoichiometry N [1] | stoichiometry N [2] |
| --- | --- | --- |
| Plasmodium vivax cell-traversal protein for ookinetes and sporozoites (PvCelTOS), amino acids 36-196 (domain or fragment) | 2 |  |
| Plasmodium falciparum cell-traversal protein for ookinetes and sporozoites (PfCelTOS), amino acids 25-182 (domain or fragment, CelTOS of Plasmodium falciparum, UniProtKB Q8I5P1, amino acids 25-182, codon-optimized gene; No cleavage of the hexahistidine tag is described; the same preparation is detected with an anti-His antibody in the lipid strip assay, so the tag was probably kept; also called Antigen 2; source: E. coli, purified (Nickel-NTA chromatography, gel filtration on Superdex 200)) FRGNNGHNSSSSLYNGSQFIEQLNNSFTSAFLESQSMNKIGDDLAETISNELVSVLQKNSPTFLESSFDIKSEVKKHAKSMLKELIKVGLPSFENLVAENVKPPKVDPATYGIIVPVLTSLFNKVETAVGAKVSDEIWNYNSPDVSESEESLSDDFFD |  | 2 |
